This is an account of results in publication PMC6505963.

The target in data set [1] is GST-BLM RQC (human, UniProt P54132 1068-1209). Description: EMSA; 1, 5, 10 uM protein; FP: 10 mM Tris-HCl pH 7.5, 25 mM NaCl, 1 mM DTT, 100 pM DNA, 25 C; EMSA: 10 mM Tris-HCl pH 8.0, 2 mM DTT, 1 mM EDTA, 20% glycerol, 0.2 uM DNA, 4 C, 30 min, 7.5%.
Data set [2] addresses GST-BLM RQC R1139A (human, UniProt P54132 1068-1209, R1139A). Description: EMSA; FP: 10 mM Tris-HCl pH 7.5, 25 mM NaCl, 1 mM DTT, 100 pM DNA, 25 C; EMSA: 10 mM Tris-HCl pH 8.0, 2 mM DTT, 1 mM EDTA, 20% glycerol, 0.2 uM DNA, 4 C, 30 min, 7.5%.
Data set [3] addresses GST-BLM RQC S1121A (human, UniProt P54132 1068-1209, S1121A). Described as above.
The target in data set [4] is GST-BLM RQC K1125A (human, UniProt P54132 1068-1209, K1125A). The data set is described as above.
Data set [5] concerns the target BLM RQC (GST-free) (human, UniProt P54132 1068-1209). Description: fluorescence polarization; FP: 10 mM Tris-HCl pH 7.5, 25 mM NaCl, 1 mM DTT, 100 pM DNA, 25 C; EMSA: 10 mM Tris-HCl pH 8.0, 2 mM DTT, 1 mM EDTA, 20% glycerol, 0.2 uM DNA, 4 C, 30 min, 7.5%.

GST-BLM RQC S1121A, sequence (P54132 1068-1209 S1121A): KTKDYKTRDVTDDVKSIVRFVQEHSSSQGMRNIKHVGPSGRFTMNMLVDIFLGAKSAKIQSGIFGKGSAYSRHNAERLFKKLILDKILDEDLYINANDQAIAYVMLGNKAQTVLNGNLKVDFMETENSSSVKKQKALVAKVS
GST-BLM RQC K1125A, sequence (P54132 1068-1209 K1125A): as the sequence (P54132 1068-1209 S1121A) above, with A54S, K58A counted along it
GST-BLM RQC R1139A, sequence (P54132 1068-1209 R1139A): as the sequence (P54132 1068-1209 S1121A) above, with A54S, R72A counted along it
BLM RQC (GST-free), sequence (P54132 1068-1209): as the sequence (P54132 1068-1209 S1121A) above, with A54S counted along it
GST-BLM RQC, sequence (P54132 1068-1209): as the sequence (P54132 1068-1209 S1121A) above, with A54S counted along it

B1: Holliday junction (HJ) (structured_DNA)
DNA 1: CTAGAACAGCATGTCCTAGCAAGCCAGAATTC
DNA 2: GAATTCTGGCTTGCTAGGACATCTTTGCCCAC
DNA 3: GTGGGCAAAGATGTCCTAGCAATGTAATCGTC
DNA 4: GACGATTACATTGCTAGGACATGCTGTTCTAG
Consider B1, for which, in data set [1], the binding result is “binds”. Also, the binding signal in data set [2] was ~70 % loss of binding vs wild type; in data set [3], ~10 % loss of binding vs wild type; in data set [4], ~50 % loss of binding vs wild type.

B2: forked duplex (dsDNA)
DNA 1: TTTTTTTTTTAGGGCATGCACTAC
DNA 2: GTAGTGCATGCCCTAATTTTTTTT
In data set [5], B2 came in with a Kd of around 700 nM.
